Results from paper PMC3830444 (BMC Biochemistry, 2013).
Ends that are not written are not given here.

Target: human α-thrombin (human, UniProt P00734 364-622)
Experiment: ELISA
Conditions: both partners purified

Row | Binder | IC50
1 | Ac-GDFEPIPEDAYDE [H6HV3_(54-66) synthetic peptide] | 0.74 µM
2 | Ac-GDFEPIPEDAYDE (not fully specified (C-terminus)) [H6HV3_(54-66)G6 synthetic peptide] | 1.4 µM
